Laboratory results as given in patent publication US20120142597A1 (GEORGIA TECH RESEARCH, published 2012).

B1: monobiotinylated recombinant fibronectin fragment FNIII7-10 (ligand)
chain: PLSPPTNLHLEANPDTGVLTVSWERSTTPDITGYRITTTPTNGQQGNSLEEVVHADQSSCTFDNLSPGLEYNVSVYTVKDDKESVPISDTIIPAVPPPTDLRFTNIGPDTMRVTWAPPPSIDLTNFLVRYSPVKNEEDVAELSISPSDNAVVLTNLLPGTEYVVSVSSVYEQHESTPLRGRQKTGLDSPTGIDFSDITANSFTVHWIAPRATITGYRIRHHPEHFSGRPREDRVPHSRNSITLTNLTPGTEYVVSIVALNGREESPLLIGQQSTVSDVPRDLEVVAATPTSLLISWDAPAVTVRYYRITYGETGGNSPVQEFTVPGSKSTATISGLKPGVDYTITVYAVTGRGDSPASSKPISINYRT
modifications: single biotin on the N-terminal biotin tagging sequence (monobiotinylated)

Legend:
[1] = target: T1, α5β1 integrin on MC3T3-E1 murine osteoblast-like cells (mouse, UniProt P11688 45-1053; P09055 21-798); assay: antibody blocking of adhesion, MC3T3-E1 cells on tethered ligand
T1 construct: whole, on cells; also called alpha5beta1
T1 sequence (P11688 45-1053, chain 1 of 2): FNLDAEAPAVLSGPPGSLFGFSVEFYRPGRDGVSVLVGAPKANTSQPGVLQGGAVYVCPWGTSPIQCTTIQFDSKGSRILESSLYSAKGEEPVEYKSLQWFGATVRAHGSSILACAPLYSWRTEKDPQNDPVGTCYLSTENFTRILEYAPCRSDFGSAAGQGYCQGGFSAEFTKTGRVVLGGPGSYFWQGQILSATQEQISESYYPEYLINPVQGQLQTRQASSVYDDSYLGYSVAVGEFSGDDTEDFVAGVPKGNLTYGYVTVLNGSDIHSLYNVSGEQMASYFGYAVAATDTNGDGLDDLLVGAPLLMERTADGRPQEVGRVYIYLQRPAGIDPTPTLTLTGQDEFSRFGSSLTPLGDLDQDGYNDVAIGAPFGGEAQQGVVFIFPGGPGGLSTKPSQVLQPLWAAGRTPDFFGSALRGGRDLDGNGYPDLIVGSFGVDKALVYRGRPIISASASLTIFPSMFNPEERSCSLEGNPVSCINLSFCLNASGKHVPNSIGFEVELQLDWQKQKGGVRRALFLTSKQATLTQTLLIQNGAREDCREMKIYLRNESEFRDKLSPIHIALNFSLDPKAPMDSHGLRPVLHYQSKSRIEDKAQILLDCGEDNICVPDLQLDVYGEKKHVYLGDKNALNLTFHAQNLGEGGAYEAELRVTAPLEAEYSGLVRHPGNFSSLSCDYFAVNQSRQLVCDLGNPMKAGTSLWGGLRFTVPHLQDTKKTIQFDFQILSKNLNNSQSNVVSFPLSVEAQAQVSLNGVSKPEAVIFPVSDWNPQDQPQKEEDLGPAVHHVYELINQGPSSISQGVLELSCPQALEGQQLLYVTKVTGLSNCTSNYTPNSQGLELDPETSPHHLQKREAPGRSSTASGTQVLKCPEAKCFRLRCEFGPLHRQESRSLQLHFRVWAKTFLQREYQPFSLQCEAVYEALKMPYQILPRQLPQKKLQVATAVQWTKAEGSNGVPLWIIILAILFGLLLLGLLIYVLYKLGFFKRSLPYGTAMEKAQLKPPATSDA
T1 sequence (P09055 21-798, chain 2 of 2): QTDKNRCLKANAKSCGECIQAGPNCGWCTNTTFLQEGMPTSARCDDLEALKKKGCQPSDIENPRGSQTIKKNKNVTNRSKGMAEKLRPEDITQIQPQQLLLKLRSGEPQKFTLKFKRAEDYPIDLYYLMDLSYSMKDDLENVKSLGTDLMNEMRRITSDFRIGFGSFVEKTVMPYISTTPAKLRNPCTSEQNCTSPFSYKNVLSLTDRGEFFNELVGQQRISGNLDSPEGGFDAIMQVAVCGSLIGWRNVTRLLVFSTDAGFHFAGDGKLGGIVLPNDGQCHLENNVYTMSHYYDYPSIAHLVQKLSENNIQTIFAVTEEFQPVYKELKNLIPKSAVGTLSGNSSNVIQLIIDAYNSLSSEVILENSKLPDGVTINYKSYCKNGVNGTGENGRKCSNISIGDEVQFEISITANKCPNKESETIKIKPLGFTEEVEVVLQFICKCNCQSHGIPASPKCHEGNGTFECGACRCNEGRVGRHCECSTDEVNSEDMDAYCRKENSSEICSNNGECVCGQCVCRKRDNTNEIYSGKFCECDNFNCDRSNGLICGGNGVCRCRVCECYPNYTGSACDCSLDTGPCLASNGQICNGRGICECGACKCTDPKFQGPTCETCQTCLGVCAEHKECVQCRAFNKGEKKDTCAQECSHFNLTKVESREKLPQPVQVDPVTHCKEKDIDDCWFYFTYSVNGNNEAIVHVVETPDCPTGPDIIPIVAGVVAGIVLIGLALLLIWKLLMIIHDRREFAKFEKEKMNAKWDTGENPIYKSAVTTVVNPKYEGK
Experimental: MC3T3-E1 cells were labeled with 4 mM calcein-AM, a membrane-permeable green fluorescent dye, in 2 mM dextrose-DPBS for 30 min and resuspended in α-MEM with 10% FBS. Cells were seeded onto the surfaces at 200 cells/mm², and allowed to attach for 1 h at 37° C. For blocking antibody experiments, cells were incubated in the presence of function-perturbing antibodies (10 μg/ml) for 10 min with gentle agitation prior to cell seeding. […] Wells were then filled completely with dextrose-PBS, sealed, inverted, and centrifuged for 5 min at a prescribed speed on a Beckman Allegra 6 centrifuge (GH 3.8 rotor) to apply normal detachment forces. Media was then gently aspirated from the wells, and wells were refilled for post-spin image collection. Post/pre-spin cell ratios were determined by image analysis, and this adhesive fraction was plotted against ligand surface density to obtain cell adhesion profiles.
Function-perturbing antibodies directed against different integrin subunits were used to block adhesion to the engineered interfaces. Since integrins α₅β₁ and αᵥβ₃ represent the dominant adhesion receptors for FN in MC3T3-E1 cells, the contributions of these receptors to adhesion strength on the peptide-functionalized SAMs was examined. Surfaces were tethered with maximum density of ligand, and the relative cell adhesion was normalized to unblocked controls.

[2] = target: αvβ3 integrin on MC3T3-E1 murine osteoblast-like cells (mouse, UniProt P43406 31-1044; O54890 26-787); assay: cell-based or functional assay
Sequence of αvβ3 integrin on MC3T3-E1 murine osteoblast-like cells (P43406 31-1044, chain 1 of 2): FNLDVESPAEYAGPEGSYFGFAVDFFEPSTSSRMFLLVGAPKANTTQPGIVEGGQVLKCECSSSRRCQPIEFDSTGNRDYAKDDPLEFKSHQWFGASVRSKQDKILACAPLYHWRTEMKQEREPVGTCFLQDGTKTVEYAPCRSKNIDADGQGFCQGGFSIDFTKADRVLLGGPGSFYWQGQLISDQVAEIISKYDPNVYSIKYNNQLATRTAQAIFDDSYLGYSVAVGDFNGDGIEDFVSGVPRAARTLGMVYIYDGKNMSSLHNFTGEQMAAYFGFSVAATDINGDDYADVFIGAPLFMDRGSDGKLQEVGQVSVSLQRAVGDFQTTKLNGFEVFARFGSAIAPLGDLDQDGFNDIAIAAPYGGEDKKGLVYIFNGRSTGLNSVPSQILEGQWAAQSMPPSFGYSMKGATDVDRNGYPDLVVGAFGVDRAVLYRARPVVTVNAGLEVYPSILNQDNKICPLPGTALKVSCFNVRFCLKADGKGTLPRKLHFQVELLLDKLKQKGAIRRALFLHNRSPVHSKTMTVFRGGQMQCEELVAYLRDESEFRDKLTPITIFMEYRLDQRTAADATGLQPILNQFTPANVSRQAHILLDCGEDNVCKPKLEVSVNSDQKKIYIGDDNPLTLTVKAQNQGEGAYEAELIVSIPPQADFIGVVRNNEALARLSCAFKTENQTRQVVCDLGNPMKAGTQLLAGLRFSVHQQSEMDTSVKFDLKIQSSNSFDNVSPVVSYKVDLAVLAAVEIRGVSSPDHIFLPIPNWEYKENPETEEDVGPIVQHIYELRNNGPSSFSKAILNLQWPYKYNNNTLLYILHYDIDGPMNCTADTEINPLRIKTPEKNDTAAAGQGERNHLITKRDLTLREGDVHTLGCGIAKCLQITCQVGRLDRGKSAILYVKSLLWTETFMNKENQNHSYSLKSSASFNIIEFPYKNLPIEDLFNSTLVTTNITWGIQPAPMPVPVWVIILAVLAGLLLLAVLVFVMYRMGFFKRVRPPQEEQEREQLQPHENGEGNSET
Sequence of αvβ3 integrin on MC3T3-E1 murine osteoblast-like cells (O54890 26-787, chain 2 of 2): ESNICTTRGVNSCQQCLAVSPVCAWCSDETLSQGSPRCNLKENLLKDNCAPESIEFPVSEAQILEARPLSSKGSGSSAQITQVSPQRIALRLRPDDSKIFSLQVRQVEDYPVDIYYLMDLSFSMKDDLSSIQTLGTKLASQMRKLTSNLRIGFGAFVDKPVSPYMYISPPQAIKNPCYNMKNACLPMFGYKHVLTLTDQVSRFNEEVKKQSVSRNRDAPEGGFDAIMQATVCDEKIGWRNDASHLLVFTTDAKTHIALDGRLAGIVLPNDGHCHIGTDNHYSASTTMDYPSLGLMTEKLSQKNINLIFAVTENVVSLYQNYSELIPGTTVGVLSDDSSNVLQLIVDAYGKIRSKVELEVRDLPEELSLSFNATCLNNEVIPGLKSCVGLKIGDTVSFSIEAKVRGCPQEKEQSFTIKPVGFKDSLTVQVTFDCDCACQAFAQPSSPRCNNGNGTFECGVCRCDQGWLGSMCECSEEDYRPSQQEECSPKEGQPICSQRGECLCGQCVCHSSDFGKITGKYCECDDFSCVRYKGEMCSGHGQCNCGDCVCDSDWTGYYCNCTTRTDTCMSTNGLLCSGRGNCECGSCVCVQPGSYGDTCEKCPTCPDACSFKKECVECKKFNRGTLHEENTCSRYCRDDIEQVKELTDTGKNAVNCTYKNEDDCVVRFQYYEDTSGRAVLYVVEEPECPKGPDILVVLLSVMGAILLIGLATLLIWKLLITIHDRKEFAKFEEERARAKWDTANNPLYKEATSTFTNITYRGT

[3] = target: T1, α5β1 integrin on MC3T3-E1 murine …; assay: cell-based or functional assay

binding result [1]	ADH50 (ligand density required for half-maximal adhesion of MC3T3-E1 cells) [2] [fmol/cm^2]	ADH50 (ligand density required for half-maximal adhesion of MC3T3-E1 cells) [3] [fmol/cm^2]	FAK tyrosine-397 phosphorylation, FNIII7-10 surface against RGD-tethered surface [3] [fold]	cell proliferation rate (BrdU incorporation), FNIII7-10 surface against RGD-tethered surface [3] [fold]	Binder
no binding	1950	–	–	–	GRGDGGGGGGGGGGGGGPHSRN (Synthetic; tethered to SAMs) [RGD-PHSRN peptide (GRGDG13PHSRN)]
–	2300	–	–	–	GRGDSPC [RGD peptide (GRGDSPC)]
–	–	70	~3	2	B1
